Patent US20190040149A1 (Innovent, published 2019)
Changes are numbered by the printed parent chain.

B1: Fab of Antibody C (Fab, V domains shown)
VH: QVQLVQSGAEVKKPGASVKVSCKASGYTFTAQYMHWVRQAPGQGLEWMGIINPSGGETGYAQKFQGRVTMTRDTSTSTVYMELSSLRSEDTAVYYCAKEGVADGYGLVDVWGQGTMVTVSS
VL: EIVLTQSPATLSLSPGERATLSCRASQSVSSYLAWYQQKPGQAPRLLIYDASKRATGIPARFSGSGSGTDFTLTISSLEPEDFAVYYCDQRNNWPLTFGGGTKVEIK
notes: Fab in solution in BLI; also called Antibody C (Fab in solution)
B2: Fab of Antibody D (Fab, V domains shown)
VH: B1 VH with T30E, A31K, Q32Y, S54D, E57S
VL: B1 VL
notes: Fab in solution in BLI; also called Antibody D (Fab in solution)
B3: Fab of Antibody A (Fab, V domains shown)
VH: B1 VH with A31S, Q32Y, E57S, G59S, V119I
VL: B1 VL
notes: Fab used in solution in the bio-layer interferometry columns 'Fab in solution'; also called Antibody A (Fab in solution)
B4: Fab of Antibody E (Fab, V domains shown)
VH: B1 VH with A31S, Q32N, G55E, E57S
VL: B1 VL
notes: Fab in solution in BLI; also called Antibody E (Fab in solution)
B5: Fab of Antibody B (Fab, V domains shown)
VH: B1 VH with T30E, A31G, Q32Y, S54E, G59S, T76I, V79A, S85R, E89D
VL: B1 VL
notes: Fab in solution in BLI; also called Antibody B (Fab in solution)
B6: Fab of Antibody F (Fab, V domains shown)
VH: B1 VH with T30S, Q32Y, S54D, E57S
VL: B1 VL
notes: Fab in solution in BLI; also called Antibody F (Fab in solution)

Biological target: cyno PD-1_Fc (cyno)
Experiment: bio-layer interferometry (ForteBio), Fab in solution, cyno PD-1_Fc on sensor tip

Row | Binder | Kd [nM]
1 | B1 | 2.4
2 | B2 | 4.4
3 | B3 | 14
4 | B4 | 3.3
5 | B5 | 3.7
6 | B6 | 3.6

Biological target: T1, human PD-1_Fc (human, UniProt Q15116 25-167, limits assumed)
T1 construct: not shown: Fc part
T1 sequence (Q15116 25-167 limits assumed): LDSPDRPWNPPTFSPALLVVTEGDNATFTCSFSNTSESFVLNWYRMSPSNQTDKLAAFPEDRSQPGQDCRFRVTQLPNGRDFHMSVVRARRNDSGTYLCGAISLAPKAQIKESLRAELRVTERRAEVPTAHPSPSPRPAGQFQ
Experiment: bio-layer interferometry (ForteBio), Fab in solution, human PD-1_Fc on sensor tip

Row | Binder | Kd [nM]
7 | B1 | 2
8 | B2 | 3.4
9 | B3 | 16
10 | B4 | 2.7
11 | B5 | 2.7
12 | B6 | 3

Biological target: T2, murine PD-1_Fc (mouse, UniProt Q02242 25-167, limits assumed)
T2 construct: not shown: Fc part
T2 sequence: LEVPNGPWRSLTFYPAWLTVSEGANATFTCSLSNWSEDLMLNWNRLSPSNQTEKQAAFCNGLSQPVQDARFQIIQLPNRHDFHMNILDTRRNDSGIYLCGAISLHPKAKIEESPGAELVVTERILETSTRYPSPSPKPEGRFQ
Experiment: bio-layer interferometry (ForteBio), Fab in solution, murine PD-1_Fc on sensor tip

Row | Binder | Kd [nM]
13 | B1 | 10
14 | B2 | 7.8
15 | B3 | 33
16 | B4 | 7.6
17 | B5 | 17
18 | B6 | 6.1
